Measurements reported in paper PMC11466968.

Legend:
BAG3 = BAG3 (UniProt O95817); assay: co-immunoprecipitation; conditions: sites T287
HRI = HRI (UniProt Q9BQI3); assay: co-immunoprecipitation with anti-FLAG antibody; conditions: reference: wild type BAG3-FLAG; sites S173,S377,S386

“CaMKIIβ (from UniProt Q13554) CaMKIIβ T287A” was tested, and the “binding against the reference” value (BAG3; reference: wild type CaMKIIβ) was “weaker”.
For “CaMKIIδ (from UniProt Q13557) CaMKIIδ T287A”, the “binding against the reference” value (BAG3; reference: wild type CaMKIIδ) was “weaker”.
For “BAG3 (from UniProt O95817) BAG3 3A (S173A/S377A/S386A)”, the “binding against the reference” value (HRI) was “weaker”.
